For the data set, the system named is ATP. As to the kind of experiment: switch fluorescence ratio, 500 uM ATP over buffer (Cy3 cluster intensity, sum of 5 cycles each) (fold (ratio)); higher = stronger signal-on switching upon ATP binding; sequences stand for … in TCGTCGGCAGCGTCAGATGTGTATAAGAGACAGTTTTTTTTTTTTTTTTTTTTTTTTT…TC. Conditions: aptamer strand: ATP DNA aptamer (quencher-CACCTGGGGGAGTATTGCGGAGGAAGG + anchor), 100 nM annealed; ATP concentration: 500 uM. The method in brief: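 Values give the fluorescence ratio for each switch-domain sequence, averaged from per-cluster ratios of summed target-cycle to summed buffer-cycle Cy3 intensity. The Cy3-labelled switching-strand clusters sat on a modified Illumina MiSeq flow-cell, were annealed to 100 nM quencher-labelled ATP aptamer, and were imaged in selection buffer, then after 15 min with 500 uM ATP at 22 °C. Five cycles ran with NaOH stripping and re-annealing between them, and clusters outside 100-1000 RFU were excluded.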

± gives the standard deviation of the averaged measurements.
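Also: ATP exposure 15 min at 22 °C before imaging.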

As to ACGTGTTGGC, the switch fluorescence ratio is 1.02 ± 0.052. For ACGTACTTGA the value was 1.52 ± 0.085; for CAATGGTTCA, 1.01 ± 0.013; for GGTGGAAAGG, 0.982 ± 0.043. As for CGTTTATGTA, the figure is 0.995 ± 0.04; as for AATGTAGGCT, 1.03 ± 0.027; as for TGGTTATGTA, 1 ± 0.014.

In the case of CGTCCGACTT, the switch fluorescence ratio amounted to 1.2 ± 0.089. For AAAAAGTCAT the value was 0.967 ± 0.021; for GCATTAGGGC, 1.07 ± 0.14. For TTTTTAAA the value was 0.988 ± 0.017; for TTTAAATTAG, 0.969 ± 0.046; for TATATTGCAT, 1.01 ± 0.015. As for GGCTATCTGT, the figure is 1 ± 0.047; as for AGGAGTGCCA, 1.017 ± 0.0093.

Consider CCTTGTAGGT, for which the switch fluorescence ratio amounted to 1.02 ± 0.038. As for ATGGGTAGGG, the figure is 0.967 ± 0.017. For CGGGACTTTT the value was 0.982 ± 0.044; for TATCAAATTA, 1.03 ± 0.011. For the sequence CCCTTTTTTG, the switch fluorescence ratio came to 1.02 ± 0.05. As for GGGTATCCTC, the figure is 0.986 ± 0.037. For AGTGGGAACA the value was 1.01 ± 0.017; for ATTTGAACAG, 0.978 ± 0.015.

GGGTAATGGC: the switch fluorescence ratio was 0.971 ± 0.014. On to GGTTATCGTA, for which the switch fluorescence ratio was 1.02 ± 0.011. For CGTTGGTCGC the value was 1.01 ± 0.016. For TGTAAGGTCG the value was 1.013 ± 0.01; for TGCGGGGTGG, 1.12 ± 0.072; for CTTTTACATG, 1.003 ± 0.0095.

Source of the values: the supplement of paper PMC10126150.
